# Experiments:
# [1] = target: mGluR5 (endogenous) (UniProt Q3UVX5); assay: co-IP with myc antibody, mGluR5 blot
# [2] = target: mGluR5 (endogenous) (UniProt Q3UVX5); assay: co-IP of myc-Homer; details: reference: H2WT replacement; sites S117,S216
substance,measurement,setting,value
"Homer1 (H1, long form) (from UniProt Q9Z2Y3) H1mycS117A",binding against the reference,"[1]; reference: H1mycWT, sites S117",stronger
Homer2 (H2) (from UniProt Q9QWW1) H2S117/216AA replacement,binding against the reference,[2],stronger
Homer2 (H2) (from UniProt Q9QWW1) H2mycS117/216AA,binding against the reference,"[1]; reference: H2mycWT, sites S117,S216",stronger

# — publication PMC4685008
